From publication PMC4108472, “Characterization of a Novel BCHE “Silent” Allele: Point Mutation (p.Val204Asp) Causes Loss of Activity and Prolonged Apnea with Suxamethonium” (PLoS ONE, 2014)
Values joined by “and” are separate entries in the source; they are usually repeats but may differ in a detail not shown here. Identical values can stand only once.

Target: the molecule itself
Assay: native gel or EMSA; nondenaturing gradient gel (4–30%) of plasma samples (5 µL/lane), bands stained for BChE activity with BTC as the substrate

B1: Butyrylcholinesterase (usual, wild-type) of human plasma (enzyme, human (endogenous in plasma), UniProt P06276 29-602, looked up)
chain: EDDIIIATKNGKVRGMNLTVFGGTVTAFLGIPYAQPPLGRLRFKKPQSLTKWSDIWNATKYANSCCQNIDQSFPGFHGSEMWNPNTDLSEDCLYLNVWIPAPKPKNATVLIWIYGGGFQTGTSSLHVYDGKFLARVERVIVVSMNYRVGALGFLALPGNPEAPGNMGLFDQQLALQWVQKNIAAFGGNPKSVTLFGESAGAASVSLHLLSPGSHSLFTRAILQSGSFNAPWAVTSLYEARNRTLNLAKLTGCSRENETEIIKCLRNKDPQEILLNEAFVVPYGTPLSVNFGPTVDGDFLTDMPDILLELGQFKKTQILVGVNKDEGTAFLVYGAPGFSKDNNSIITRKEFQEGLKIFFPGVSEFGKESILFHYTDWVDDQRPENYREALGDVVGDYNFICPALEFTKKFSEWGNNAFFYYFEHRSSKLPWPEWMGVMHGYEIEFVFGLPLERRDNYTKAEEILSRSIVKRWANFAKYGNPNETQNNSTSWPVFKSTEQKYLTLNTESTRIMTKLRAQQCRFWTSFFPKVLEMTGNIDEAEWEWKAGFHRWNNYMMDWKNQFNDYTSKKESCVGL
notes: Butyrylcholinesterase, human, Swissprot P06276, as it circulates in plasma; Subunit of the plasma enzyme; Plasma of the heterozygous family members also holds variant subunits (p.Val204Asp; p.Asp70Gly-p.Ala539Thr); also called BChE; pseudocholinesterase; source: endogenous, human plasma (genotype UU control and family members' plasma)
stoichiometry N: 4 and 2
